Assay results: publication PMC8038991, “R-catcher, a potent molecular tool to unveil the arginylome” (Cellular and Molecular Life Sciences: CMLS, 2021)

Tests used:
Test in all cases: ITC; protein 0.05 mM, 4-mer peptide 1 mM as injectant, B buffer (50 mM Tris-HCl pH 7.5, 200 mM NaCl), 25 °C, Microcal Auto-ITC200; single site-binding model
[1] = molecular target: purified N132D ZZ fragment p62 (122-175) of the ITC table (Fig. 3b) (human) (UniProt Q13501)
[2] = molecular target: purified wild type ZZ fragment p62 (122-175) of the ITC table (Fig. 3b) (human) (UniProt Q13501)
[3] = molecular target: GST-ZZ_(122-175), wild type, bacterially expressed (human) (UniProt Q13501)

| Binder | Kd [1] | Kd [2] | Kd [3] |
| --- | --- | --- | --- |
| YIFS [YIFS tetrapeptide (Nt-Tyr)] | 107 µM | 20.7 µM | 16.1 µM |
| RIFS [RIFS tetrapeptide (Nt-Arg)] | 2.85 µM | 6.9 µM | 4.4 µM |
